This assay concerns the target T1, GFP-RGS19 (UniProt P49795 1-217).
T1 construct: RGS19, regulator of G protein signaling 19; Plasmid published earlier; also called GFP-tagged RGS19 construct; source: HEK293T, transfected, in lysate
T1 sequence (looked up): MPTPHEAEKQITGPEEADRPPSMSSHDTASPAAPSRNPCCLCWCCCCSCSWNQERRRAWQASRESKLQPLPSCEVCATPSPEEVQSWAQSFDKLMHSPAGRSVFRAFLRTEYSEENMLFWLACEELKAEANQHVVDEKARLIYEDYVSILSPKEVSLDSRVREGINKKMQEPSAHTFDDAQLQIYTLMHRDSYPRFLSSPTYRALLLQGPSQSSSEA
Kind of assay: co-IP; HEK293T co-transfected with the GFP-tagged construct and non-tagged Gαo variants; IP of the GFP fusion with a recombinant GST-tagged nanobody against GFP; Western blot with antibodies against Gαo and GFP; blots quantified with ImageJ. To be noted: partners not purified. (A western blot detects proteins with antibodies after separation by electrophoresis.)

One molecule from publication PMC12781765, “Atypical GNAO1 variants in severe childhood speech disorders: clinical, genetic, and molecular insights” (Molecular Autism, 2025) can be followed below.

Where only a bound is given, the exact number is not on record here.

B1: Gαo L39_G40insV (non-tagged) (natural protein, human, UniProt P09471-1 1-354, looked up)
chain: MGCTLSAEERAALERSKAIEKNLKEDGISAAKDVKLLLLVGAGESGKSTIVKQMKIIHEDGFSGEDVKQYKPVVYSNTIQSLAAIVRAMDTLGIEYGDKERKADAKMVCDVVSRMEDTEPFSAELLSAMMRLWGDSGIQECFNRSREYQLNDSAKYYLDSLDRIGAADYQPTEQDILRTRVKTTGIVETHFTFKNLHFRLFDVGGQRSERKKWIHCFEDVTAIIFCVALSGYDQVLHEDETTNRMHESLMLFDSICNNKFFIDTSIILFLNKKDLFGEKIKKSPLTICFPEYTGPNTYEDAAAYIQAQFESKNRSPNKEIYCHMTCATDTNNIQVVFDAVTDIIIANNLRGCGLY
notes: Gαo (GNAO1) with the patient variant p.Leu39_Gly40insVal (c.116_118dup), introduced by site-directed mutagenesis into the non-tagged Gαo plasmid; De novo patient variant; also called p.Leu39_Gly40insVal; source: HEK293T, transfected (in lysate for co-IP; in cells for BRET)
For B1, the “percent of the binding of wild-type” value is under 15%.
